These results are taken from patent US20210290602A1.

For experiment [1], the target named is T1, purified recombinant CSPα^WT (E. coli, GST removed by TEV protease) (Homo sapiens (Human)), Q9H3Z4.
T1 chain: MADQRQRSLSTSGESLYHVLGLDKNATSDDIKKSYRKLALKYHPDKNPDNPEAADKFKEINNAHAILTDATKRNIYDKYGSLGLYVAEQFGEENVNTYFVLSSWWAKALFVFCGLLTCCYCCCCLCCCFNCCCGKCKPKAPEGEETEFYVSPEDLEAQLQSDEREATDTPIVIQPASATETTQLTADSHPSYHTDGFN
The experiment is described as follows: self-oligomerization of purified recombinant protein, SDS-PAGE and quantitative anti-CSPα immunoblot. To be noted: remark: other sources report otherwise. For orientation: A western blot detects proteins with antibodies after separation by electrophoresis.

Experiment [2] addresses T2, purified recombinant CSPα^L115R (E. coli, GST removed by TEV protease) (Homo sapiens (Human)), Q9H3Z4.
T2 chain: T1 chain with L115R
The description is as above. The conditions noted are these: remark: other sources report otherwise.

Positions count from the first letter of the chain named. Names may count otherwise.

B1: purified recombinant CSPα^WT (E. coli, GST removed by TEV protease), Q9H3Z4 1-198 (protein)
chain: T1 chain
modifications: here or on the partner: Fe-S clusters bound at the Cys-string of the E. coli protein. No palmitoylation in bacteria.; Fe-S clusters bound at the Cys-string of the E. coli protein. No palmitoylation in bacteria.
Regarding B1, in experiment [1], the percent of protein existing as oligomers stood at 75%.

B2: purified recombinant CSPα^L115R (E. coli, GST removed by TEV protease), Q9H3Z4 1-198 (protein)
chain: T1 chain with L115R
modifications: here or on the partner: Fe-S clusters bound at the Cys-string of the E. coli protein.; Fe-S clusters bound at the Cys-string of the E. coli protein.
As to B2, in experiment [2], the percent of protein existing as oligomers is 75%.
